Data on one substance can be found in patent EP0935607B1.

Test [1] deals with detergent soluble DR2 purified from an EBV transformed B cell line (human) (UniProt P01903). Put plainly: time course ELISA at 37°C, 200 nM DR2, 2 µM peptide, L243 capture.
Test [2] has as its target recombinant HLA-DR2 fusion protein (DRα-Fos / DRβ-Jun heterodimer, DRA*0101 / DRB1*1501) secreted by Pichia pastoris (human). The test is described as above.

In the case of “biotinylated MBP(85-99) peptide, biotin-SGSG-MBP(85-99) (from UniProt P02686 85-99)”, the time to plateau of binding in test [1] is > 48 h; in test [2], 18 h. Further, the time to 50% maximum binding in test [2] is 3 h.
